From patent US9375425B2, “Combination of a C-Met antagonist and an aminoheteroaryl compound for the treatment of cancer” (Pierre Fabre Medicament, priority 2008, dated 2016)
Numbering of substitutions follows the chain as printed. Like-named read-outs stand apart in the source and are kept apart here.

B1: 11E1: monoclonal antibody antagonist to c-Met, hybridoma CNCM I-3724; heavy chain SEQ ID No. 53, light chain SEQ ID No. 54 (antibody, V domains shown)
VH: QVQLQQSGAELAKPGASVKMSCKASGYTFTSYWMNWVKQRPGQGLEWIGYINPTTGSTDYNQKLKDKATLTADKSSNTAYMQLSSLTSEDSAVYYCAIGGYGSWFAYWGQGTLVTVSA
VL: QIVLTQSPAIMSASPGEKVTLTCSASSSVSSTYLYWYQQKPGSSPKLWIYTTSILASGVPARFSGSGSGTSYSLTISSMETEDAASYFCHQWSSYPFTFGSGTKLDIK
modifications: mus musculus
B2: 223C4: monoclonal antibody antagonist to c-Met, hybridoma CNCM I-3786; heavy chain SEQ ID No. 20, light chain SEQ ID No. 23 (antibody, V domains shown)
VH: EVLLQQSGPELVKPGASVKIPCKASGYTFTDYNMDWVKQSHGMSLEWIGDINPNNGGTIFNQKFKGKATLTVDKSSSTAYMELRSLTSEDTAVYYCARGRYVGYYYAMDYWGQGTSVTVSS
VL: DIQMTQSPASLSVSVGETVTITCRASENIYSNLAWYQQKQGKSPQLLVYAATNLVDGVPSRFSGSGSGTQYSLKINSLQSEDFGSYYCQHFWGPPYTFGGGTKLEIK
modifications: mus musculus
B3: 224G11: monoclonal antibody antagonist to c-Met secreted by murine hybridoma CNCM I-3731; heavy chain SEQ ID No. 18, light chain SEQ ID No. 21 (antibody, V domains shown)
VH: EVQLQQSGPELVKPGASVKISCKTSGYIFTAYTMHWVRQSLGESLDWIGGIKPNNGLANYNQKFKGKATLTVDKSSSTAYMDLRSLTSEDSAVYYCARSEITTEFDYWGQGTALTVSS
VL: DIVLTQSPASLAVSLGQRATISCRASESVDSYANSFMHWYQQKPGQPPKLLIYRASNLESGIPARFSGSGSRTDFTLTINPVEADDVATYYCQQSKEDPLTFGSGTKLEMK
modifications: mus musculus
B4: 227H1: monoclonal antibody antagonist to c-Met, hybridoma CNCM I-3732; heavy chain SEQ ID No. 19, light chain SEQ ID No. 22 (antibody, V domains shown)
VH: EVQLQQSGPELVKPGASMKISCKASGYSFTDYTLNWVKQSHGKTLEWIGLINPYNGGTTYNQKFKGKATLTVDKSSSTAYMELLSLTSEDSAVYYCAREEITKDFDFWGQGTTLTVSS
VL: B3 VL with D1G, A25V, V29I, S31T, A33G, M37I, V87S, K96N, L100F
modifications: mus musculus

Tests used:
NCI-H441 NSCLC = test: In vivo activity of 224G11 and PF-02341066 as single treatments, NCI-H441 s.c. xenograft; settings: NCI-H441 s.c. in Athymic nude mice; for tumors growth of treated mice (FIG. 1): 224G11 i.p. 2 mg loading dose then 1 mg twice a week, PF-02341066 50 mg/kg p.o.; for antitumoral activity, single treatments compared with each other: same regimens
Method: In order to verify that the NCI-H441 in vivo model available in the laboratory is sensible to both the 224G11 antibody and the PF-2341066 compound, immunocompromised mice engrafted subcutaneously with NCI-H441 were used. Briefly, NCI-H441 NSCLC cells from ATCC were cultured in RPMI 1640 medium, 10% FCS, 1% L-Glutamine. Cells were split two days before engraftment so that they were in exponential phase of growth. Ten million NCI-H441 cells were injected s.c. to Athymic nude mice. […] For the antibody treatment, mice were treated i.p. with a loading dose of 2 mg of 224G11 Mab/mouse and then twice a week with 1 mg of antibody/mouse. 50 mg/kg of PF-02341066 was administered p.o. (oral gavage), daily for a week and then 5 days a week with a double dose the fifth day. Treatment lasted during the whole experiment. Tumor volume was measured twice a week and calculated by the formula: π/6×length×width×height.

NCI-H441 cells = test: In vivo activity of a combination of 224G11 and PF-02341066, NCI-H441 xenograft; set-up: species or system Athymic nude mice; settings: day 53 post first injection; 224G11 i.p. 2 mg then 1 mg twice a week; PF-2341066 50 mg/kg p.o.
Method: NCI-H441 cells from ATCC were routinely cultured in RPMI 1640 medium, 10% FCS, 1% L-Glutamine. Cells were split two days before engraftment so that they were in exponential phase of growth. Ten million NCI-H441 cells were engrafted to Athymic nude mice. […] For the antibody treatment, mice were treated i.p. with a loading dose of 2 mg of 224G11 Mab/mouse and then twice a week with 1 mg of antibody/mouse. 50 mg/kg of PF-2341066 was administered p.o. (oral gavage), daily for a week and then 5 days a week with a double dose the fifth day. The group of mice receiving both 224G11 and PF-2341066 was treated following the same modalities as the one described above for each compound. Tumor volume was measured twice a week and calculated by the formula: […]×length×width×height and animal weights were monitored every day over the period of treatment.
Statistical analysis was performed at each measured time using a Mann-Whitney test. In this experiment, mice of the control group were sacrificed on day 53 for ethical reasons. At day 53 post first injection, the average tumor volume of single modality treated groups is reduced by 64%, 73% and 93% for 224G11, PF-2341066 and 224G11+PF-2341066 respectively. […] No significant differences were observed between the 2 single modality treatment.

c-Met mutations = settings: cited from earlier work
[1] = In vivo activity of the anti-c-Met antibodies
c-Met = c-Met (Homo sapiens, UniProt P08581); test: Inhibition of c-Met dimerization by the antibodies
c-Met, sequence (P08581 25-1390): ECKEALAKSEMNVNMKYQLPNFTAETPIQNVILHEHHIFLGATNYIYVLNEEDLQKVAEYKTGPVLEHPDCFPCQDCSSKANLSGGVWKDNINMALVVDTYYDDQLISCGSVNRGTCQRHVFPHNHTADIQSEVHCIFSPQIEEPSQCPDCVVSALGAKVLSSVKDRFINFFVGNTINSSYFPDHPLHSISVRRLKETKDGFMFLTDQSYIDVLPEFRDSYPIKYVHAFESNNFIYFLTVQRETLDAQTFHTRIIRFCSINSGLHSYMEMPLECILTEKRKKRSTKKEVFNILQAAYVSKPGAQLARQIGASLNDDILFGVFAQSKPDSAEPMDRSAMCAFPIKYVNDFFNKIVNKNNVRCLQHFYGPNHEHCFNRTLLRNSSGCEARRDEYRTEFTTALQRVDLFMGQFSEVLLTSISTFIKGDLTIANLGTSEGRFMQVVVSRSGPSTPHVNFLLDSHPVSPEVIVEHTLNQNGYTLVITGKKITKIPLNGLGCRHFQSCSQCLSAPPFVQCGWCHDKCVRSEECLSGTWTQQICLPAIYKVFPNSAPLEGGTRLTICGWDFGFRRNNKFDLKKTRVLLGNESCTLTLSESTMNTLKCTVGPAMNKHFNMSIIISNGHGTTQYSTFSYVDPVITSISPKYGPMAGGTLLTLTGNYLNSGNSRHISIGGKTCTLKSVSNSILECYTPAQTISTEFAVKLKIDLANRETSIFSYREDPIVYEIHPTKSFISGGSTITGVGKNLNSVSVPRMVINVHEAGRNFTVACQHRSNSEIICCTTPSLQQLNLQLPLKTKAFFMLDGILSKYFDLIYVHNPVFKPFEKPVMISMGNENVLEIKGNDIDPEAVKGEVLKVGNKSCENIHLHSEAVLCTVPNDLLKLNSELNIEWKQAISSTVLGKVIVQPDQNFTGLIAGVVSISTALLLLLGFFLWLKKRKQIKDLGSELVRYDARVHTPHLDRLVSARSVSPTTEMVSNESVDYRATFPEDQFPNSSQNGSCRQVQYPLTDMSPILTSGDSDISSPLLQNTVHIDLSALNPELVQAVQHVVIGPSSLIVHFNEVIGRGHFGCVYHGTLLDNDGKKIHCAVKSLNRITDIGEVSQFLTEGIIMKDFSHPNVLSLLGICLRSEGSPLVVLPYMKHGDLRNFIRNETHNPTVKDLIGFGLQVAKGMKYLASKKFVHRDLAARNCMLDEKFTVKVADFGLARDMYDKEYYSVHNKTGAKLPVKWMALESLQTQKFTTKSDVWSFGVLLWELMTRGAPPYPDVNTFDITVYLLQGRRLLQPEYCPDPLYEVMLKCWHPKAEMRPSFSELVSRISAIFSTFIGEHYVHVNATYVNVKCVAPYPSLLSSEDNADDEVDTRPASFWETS

| Molecule | tumors growth of treated mice (FIG. 1) (NCI-H441 NSCLC) | antitumoral activity, single treatments compared with each other (NCI-H441 NSCLC) | average tumor volume reduced by (NCI-H441 cells) | activity in vivo [1] | c-Met dimerization (c-Met) | further results |
| --- | --- | --- | --- | --- | --- | --- |
| C[C@@H](Oc1cc(-c2cnn(C3CCNCC3)c2)cnc1N)c1c(Cl)ccc(F)c1Cl [PF-02341066, 3-[(R)-1-(2,6-Dichloro-3-fluoro-phenyl)-ethoxy]-5-(1-piperidin-4-yl-1H-pyrazol-4-yl)-pyridin-2-ylamine, reference compound] | significant difference in tumors growth | comparable antitumoral activities | 73% |  |  |  |
| Cc1[nH]c(/C=C2\C(=O)Nc3ccc(S(=O)(=O)N(C)c4cccc(Cl)c4)cc32)c(C)c1C(=O)N1CCN(C)CC1 [SU11274] |  |  |  |  |  | sensitivity of c-Met mutation to the agent (c-Met mutations; H1112Y mutation, decreased cell growth and motility): sensitive; sensitivity of c-Met mutation to the agent (c-Met mutations; L1213V mutation): resistant; sensitivity of c-Met mutation to the agent (c-Met mutations; M1268T mutation, decreased cell growth and motility): sensitive; sensitivity of c-Met mutation to the agent (c-Met mutations; Y1248 mutation): resistant |
| B1 |  |  |  | active in vivo | inhibit the c-Met dimerization |  |
| B2 |  |  |  | active in vivo | inhibit the c-Met dimerization |  |
| B3 | significant difference in tumors growth | comparable antitumoral activities | 64% | active in vivo | inhibit the c-Met dimerization |  |
| B4 |  |  |  | active in vivo | inhibit the c-Met dimerization |  |
